{"source": "paper PMC10415141", "about": "(Nucleic Acids Research, 2023)", "binders": {"B1": {"name": "human MCM9 truncated to the first 680 amino acids (MCM9^680), wild type, N-terminal 6xHis tag (domain or fragment)", "chain": "not shown"}}, "biological_target": "T1, human MCM8 (HsMCM8), wild type, N-terminal StrepII tag and TEV site (human, UniProt Q9UJA3 1-840)", "T1 sequence (looked up)": "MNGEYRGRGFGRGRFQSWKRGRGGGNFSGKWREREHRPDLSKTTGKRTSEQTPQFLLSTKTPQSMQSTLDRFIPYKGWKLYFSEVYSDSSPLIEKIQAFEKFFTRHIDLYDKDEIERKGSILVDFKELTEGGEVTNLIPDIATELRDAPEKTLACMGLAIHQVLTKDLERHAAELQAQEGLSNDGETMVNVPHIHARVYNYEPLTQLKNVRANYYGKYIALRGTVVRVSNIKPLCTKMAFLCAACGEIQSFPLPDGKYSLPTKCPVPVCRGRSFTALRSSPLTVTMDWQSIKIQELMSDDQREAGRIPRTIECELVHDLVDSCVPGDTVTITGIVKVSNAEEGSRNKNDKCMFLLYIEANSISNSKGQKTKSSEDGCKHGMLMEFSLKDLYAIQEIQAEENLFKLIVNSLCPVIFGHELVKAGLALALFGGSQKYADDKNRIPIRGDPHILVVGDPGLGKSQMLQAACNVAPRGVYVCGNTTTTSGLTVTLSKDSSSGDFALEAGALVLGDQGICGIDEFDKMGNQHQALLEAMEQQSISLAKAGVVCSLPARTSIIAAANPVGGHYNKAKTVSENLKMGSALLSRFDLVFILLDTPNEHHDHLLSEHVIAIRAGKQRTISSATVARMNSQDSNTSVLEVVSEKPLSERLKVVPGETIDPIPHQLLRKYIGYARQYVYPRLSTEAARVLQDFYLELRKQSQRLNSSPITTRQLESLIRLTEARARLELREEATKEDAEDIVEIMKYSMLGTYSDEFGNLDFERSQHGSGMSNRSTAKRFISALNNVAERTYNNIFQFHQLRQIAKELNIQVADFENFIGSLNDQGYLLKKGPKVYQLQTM", "assay": "SEC"}
{"binder": "B1", "values": [{"measurement": "stoichiometry N", "result": 1}]}
